Among the data in US20260365719 (published 2026) are IC50 values, retold here.

The assay addresses SARS-CoV-2 spike trimer (Wuhan) (SARS-CoV-2, UniProt P0DTC2). Briefly: competition.

Numbering of substitutions follows the chain as printed.

B1: Bebtelovimab (antibody, V domains shown)
VH: QITLKESGPTLVKPTQTLTLTCTFSGFSLSISGVGVGWLRQPPGKALEWLALIYWDDDKRYSPSLKSRLTISKDTSKNQVVLKMTNIDPVDTATYYCAHHSISTIFDHWGQGTLVTVSS
VL: QSALTQPASVSGSPGQSITISCTATSSDVGDYNYVSWYQQHPGKAPKLMIFEVSDRPSGISNRFSGSKSGNTASLTISGLQAEDEADYYCSSYTTSSAVFGGGTKLTVLG
As a reminder, the IC50 is the midpoint of a concentration-inhibition curve. Read a low IC50 as greater potency. As to B1, the IC50 is 0.00899 µg/mL.

B2: 6R9A-A2 (antibody, V domains shown)
VH: EVQLVESGGGLVQPGGSLRLSCTASGFSFPHQAMTWVRQAPGKGLEWIGVIASNADTYYASWAKGRFTISRDNSKNTLYLQMNSLRAEDTAVYYCARHPGSAGYGYQYYYAMDPWGQGTLVTVSS
VL: DIQMTQSPSSLSASVGDRVTITCQASEEVHYGINWYQQKPGKAPKLLIYGANYRVDGVPSRFSGSGSGTDYTLTISSLQPEDFATYYCQQGYNVPTDFGGGTKVEIKR
B2 displayed an IC50 of 0.014 µg/mL.

B3: 6R8A-E11 (antibody, V domains shown)
VH: B2 VH with T23K, S28T, P30S, H31R, M34L
VL: B2 VL with E28N, V29I, H30R, G32A
For B3, the IC50 is 0.0116 µg/mL.

B4: 6R8C-F10 (antibody, V domains shown)
VH: B2 VH with T23K, S28T, P30S, H31R, M34L
VL: B2 VL with Q24K, E28D, V29I, H30R, I33L, T96N, D97F
As for B4, the IC50 was found to be 0.0145 µg/mL.

B5: 6R8C-G8 (antibody, V domains shown)
VH: B2 VH with P14L, T23K, F27Y, F29L, P30A, H31P
VL: B2 VL
B5 returned an IC50 of 0.0124 µg/mL.

B6: 6R8A-E1 (antibody, V domains shown)
VH: B2 VH with T23K, F27Y, F29L, P30A, H31P
VL: B2 VL with E28N, V29I, H30R, G32A
B6 had an IC50 of 0.0122 µg/mL.

B7: 6R9B-E9 (antibody, V domains shown)
VH: B2 VH with T23K, S28T, P30S, H31R, M34L
VL: B2 VL with E28N, V29I, H30R, G32A, I33V, N93R, P95Q, T96I, D97L
The molecule B7 had an IC50 of 0.0185 µg/mL.

B8: 6R8C-D9 (antibody, V domains shown)
VH: B2 VH with T23K, S28T, P30S, H31R, M34L
VL: B2 VL
Take B8: the IC50 was found to be 0.0203 µg/mL.

B9: 6R9B-B11 (antibody, V domains shown)
VH: B2 VH with T23K, S28T, P30S, H31R, M34L
VL: B2 VL with E27Q, E28A, V29I, H30K, G32A, V55G, D56P, N93I, T96I, D97T
B9 returned an IC50 of 0.015 µg/mL.

B10: 6R8C-D10 (antibody, V domains shown)
VH: B2 VH with F27Y, F29I, P30S, M34V
VL: B2 VL
In turn, B10 registered an IC50 of 0.0098 µg/mL.

B11: 6R9E-A8 (antibody, V domains shown)
VH: B2 VH with T23K, F27S, S28T, F29I, P30S, M34V
VL: B2 VL
Consider B11, for which the IC50 amounted to 0.0274 µg/mL.

B12: 6R8A-A2 (antibody, V domains shown)
VH: B2 VH with T23K, F27Y, F29L, P30N, H31K, M34L
VL: B2 VL
B12 came in with an IC50 of 0.0106 µg/mL.

B13: 6R8A-F2 (antibody, V domains shown)
VH: B2 VH with T23K, F27Y, F29L, P30S, H31S, M34L
VL: B2 VL with E28K, H30Y, I33V, A51T, V55L, Y71S, T96N, D97A
Molecule B13 showed an IC50 of 0.0169 µg/mL.
